Like-named read-outs stand apart in the source and are kept apart here.
Experiments:
[1] = tested on: Act-PB1 (MDH activator protein Act of Bacillus methanolicus PB1)
[2] = molecular target: T1, Act-MGA3 (MDH activator protein Act of Bacillus methanolicus MGA3)
T1 sequence (Q8KP10 2-185, looked up): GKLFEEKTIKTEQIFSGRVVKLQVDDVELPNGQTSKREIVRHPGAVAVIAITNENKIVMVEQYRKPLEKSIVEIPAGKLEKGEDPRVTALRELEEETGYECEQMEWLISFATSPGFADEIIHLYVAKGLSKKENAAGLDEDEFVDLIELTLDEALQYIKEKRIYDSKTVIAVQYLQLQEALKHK

[3] = molecular target: T2, Act-PB1 (MDH activator protein Act of Bacillus methanolicus PB1); remark: listed apart in the source
T2 sequence (Q8KP10 2-185, looked up): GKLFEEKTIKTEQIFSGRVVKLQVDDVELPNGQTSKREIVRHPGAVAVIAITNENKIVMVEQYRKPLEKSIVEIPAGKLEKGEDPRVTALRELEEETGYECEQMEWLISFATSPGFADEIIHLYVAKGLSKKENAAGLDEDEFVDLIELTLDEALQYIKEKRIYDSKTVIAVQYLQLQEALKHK

[4] = molecular target: T3, Mdh-MGA3 (methanol dehydrogenase Mdh of Bacillus methanolicus MGA3, encoded on plasmid pBM19)
T3 chain: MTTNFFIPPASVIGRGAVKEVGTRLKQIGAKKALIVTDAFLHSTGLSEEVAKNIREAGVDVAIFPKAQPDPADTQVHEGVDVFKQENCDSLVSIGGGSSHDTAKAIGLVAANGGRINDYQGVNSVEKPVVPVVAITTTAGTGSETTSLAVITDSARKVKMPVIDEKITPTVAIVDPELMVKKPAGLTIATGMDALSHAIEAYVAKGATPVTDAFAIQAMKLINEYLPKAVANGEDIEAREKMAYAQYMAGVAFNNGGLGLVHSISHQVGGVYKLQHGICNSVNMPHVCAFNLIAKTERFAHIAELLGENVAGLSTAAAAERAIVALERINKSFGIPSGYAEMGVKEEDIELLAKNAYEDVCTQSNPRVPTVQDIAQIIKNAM

[5] = molecular target: T4, Mdh-MGA3 (methanol dehydrogenase Mdh of Bacillus methanolicus MGA3, encoded on plasmid pBM19) (Bacillus methanolicus MGA3) (UniProt P31005); experiment: cell-based or functional assay
T4 sequence: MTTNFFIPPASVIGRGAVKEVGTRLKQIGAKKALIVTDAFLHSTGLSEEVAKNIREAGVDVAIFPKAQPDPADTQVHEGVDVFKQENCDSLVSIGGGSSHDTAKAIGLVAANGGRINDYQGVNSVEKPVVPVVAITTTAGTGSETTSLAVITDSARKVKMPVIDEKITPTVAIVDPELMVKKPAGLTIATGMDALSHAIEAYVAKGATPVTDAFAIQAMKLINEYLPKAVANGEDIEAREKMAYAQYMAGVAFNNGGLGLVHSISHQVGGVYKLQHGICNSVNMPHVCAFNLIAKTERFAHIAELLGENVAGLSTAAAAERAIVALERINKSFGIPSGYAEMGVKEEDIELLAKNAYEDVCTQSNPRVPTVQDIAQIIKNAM

[6] = molecular target: T5, Mdh2-MGA3 (methanol dehydrogenase Mdh2 of Bacillus methanolicus MGA3) (Bacillus methanolicus MGA3); experiment: cell-based or functional assay
T5 sequence: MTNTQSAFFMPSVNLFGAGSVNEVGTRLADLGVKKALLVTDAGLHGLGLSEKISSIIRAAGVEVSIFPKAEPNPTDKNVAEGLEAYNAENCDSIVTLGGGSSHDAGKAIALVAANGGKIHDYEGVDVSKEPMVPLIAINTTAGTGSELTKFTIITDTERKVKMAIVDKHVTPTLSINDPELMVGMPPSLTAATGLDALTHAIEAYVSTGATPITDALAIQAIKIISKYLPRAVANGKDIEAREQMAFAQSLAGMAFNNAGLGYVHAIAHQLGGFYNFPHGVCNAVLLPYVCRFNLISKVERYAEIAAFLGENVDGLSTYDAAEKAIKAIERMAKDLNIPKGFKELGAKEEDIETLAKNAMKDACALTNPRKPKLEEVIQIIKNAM

[7] = molecular target: T6, Mdh3-MGA3 (methanol dehydrogenase Mdh3 of Bacillus methanolicus MGA3) (Bacillus methanolicus MGA3); experiment: cell-based or functional assay
T6 sequence: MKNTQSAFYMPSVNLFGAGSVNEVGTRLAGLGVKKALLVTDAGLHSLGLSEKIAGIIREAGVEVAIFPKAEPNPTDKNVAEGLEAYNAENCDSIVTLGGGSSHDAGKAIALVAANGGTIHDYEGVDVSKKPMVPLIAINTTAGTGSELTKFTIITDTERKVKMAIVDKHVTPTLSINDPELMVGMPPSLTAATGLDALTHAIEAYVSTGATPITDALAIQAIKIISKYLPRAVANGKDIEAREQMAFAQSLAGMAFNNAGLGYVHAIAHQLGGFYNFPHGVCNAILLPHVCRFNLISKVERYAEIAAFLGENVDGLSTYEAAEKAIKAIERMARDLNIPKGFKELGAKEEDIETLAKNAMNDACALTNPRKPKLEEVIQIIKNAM

the MGA3 MDHs = experiment: cell-based or functional assay

Mdh-PB1 (methanol dehydrogenase Mdh of Bacillus methanolicus PB1, encoded on plasmid pBM20)
Km for methanol in the presence of Act (20 ug MDH + 20 ug Act) [1]: 13.9 mM | Vmax with methanol in the presence of Act (20 ug MDH + 20 ug Act) [1]: 0.2 U/mg | Vmax with methanol, with Act against single enzyme assay [1]: The Vmax values were increased 4-6-fold compared to in the single enzyme assays | fold reduction of Km,MeOH by Act [1]: substantially reduced (16-fold and 70-fold, respectively) in the presence of Act

Mdh1-PB1 (methanol dehydrogenase Mdh1 of Bacillus methanolicus PB1)
Km for methanol in the presence of Act (20 ug MDH + 20 ug Act) [1]: 2.3 mM | Vmax with methanol in the presence of Act (20 ug MDH + 20 ug Act) [1]: 0.056 U/mg | Vmax with methanol, with Act against single enzyme assay [1]: The Vmax values were increased 4-6-fold compared to in the single enzyme assays | fold reduction of Km,MeOH by Act [1]: substantially reduced (16-fold and 70-fold, respectively) in the presence of Act

B1: Mdh3-MGA3 (methanol dehydrogenase Mdh3 of Bacillus methanolicus MGA3) (protein)
chain: MKNTQSAFYMPSVNLFGAGSVNEVGTRLAGLGVKKALLVTDAGLHSLGLSEKIAGIIREAGVEVAIFPKAEPNPTDKNVAEGLEAYNAENCDSIVTLGGGSSHDAGKAIALVAANGGTIHDYEGVDVSKKPMVPLIAINTTAGTGSELTKFTIITDTERKVKMAIVDKHVTPTLSINDPELMVGMPPSLTAATGLDALTHAIEAYVSTGATPITDALAIQAIKIISKYLPRAVANGKDIEAREQMAFAQSLAGMAFNNAGLGYVHAIAHQLGGFYNFPHGVCNAILLPHVCRFNLISKVERYAEIAAFLGENVDGLSTYEAAEKAIKAIERMARDLNIPKGFKELGAKEEDIETLAKNAMNDACALTNPRKPKLEEVIQIIKNAM
Km for methanol in the presence of Act (20 ug MDH + 20 ug Act) [2]: 150 mM | Vmax with methanol in the presence of Act (20 ug MDH + 20 ug Act) [2]: 0.45 U/mg | Vmax with methanol, with Act against single enzyme assay [2]: The Vmax values were increased 4-6-fold compared to in the single enzyme assays | change of Km,MeOH by Act [2]: remained essentially the same as when tested without Act | methanol dehydrogenase activity in lysates of recombinant B. subtilis 168, methanol or ethanol as substrate, 50 C [2]: In all cases, methanol dehydrogenase activities were significantly stimulated by Act

B2: Mdh2-PB1 (methanol dehydrogenase Mdh2 of Bacillus methanolicus PB1) (protein)
chain: MTNTQSIFYIPSVNLFGPGSVNEVGTRLAGLGVKKALLVTDAGLHGLGLSEKIASIIREAGVEVLIFPKAEPNPTDKNVAEGLEVYNAENCDSIVTLGGGSSHDAGKGIALVAANGGTIYDYEGVDKSKKPMVPLIAINTTAGTGSELTRFTIITDTERKVKMAIVDKHVTPTLSINDPELMVGMPPSLTAATGLDALTHAIEAYVSTAATPITDALAIQAIKIISKYLPRAFANGKDMEAREQMAFAQSLAGMAFNNASLGYVHAIAHQFGGFYNFPHGVCNAILLPHVCRFNLISKVERFAEIAALLGENVAGLSTREAAEKGIKAIERMAKDLNIPRGFKELGAKEEDIVTLAENAMKDATALTNPRKPKLEEVIQIIKNAM
Km for methanol in the presence of Act (20 ug MDH + 20 ug Act) [3]: 36 mM | Vmax with methanol in the presence of Act (20 ug MDH + 20 ug Act) [3]: 0.24 U/mg | Vmax with methanol, with Act against single enzyme assay [3]: The Vmax values were increased 4-6-fold compared to in the single enzyme assays | fold reduction of Km,MeOH by Act [3]: moderately (4-fold) reduced by Act for Mdh2-PB1

B3: B. subtilis NudF protein (nudF gene product, ADP-ribose pyrophosphatase subfamily of Nudix hydrolases) (protein)
chain: MKSLEEKTIAKEQIFSGKVIDLYVEDVELPNGKASKREIVKHPGAVAVLAVTDEGKIIMVKQFRKPLERTIVEIPAGKLEKGEEPEYTALRELEEETGYTAKKLTKITAFYTSPGFADEIVHVFLAEELSVLEEKRELDEDEFVEVMEVTLEDALKLVESREVYDAKTAYAIQYLQLKEALQAQK
fold stimulation of Mdh activity, ethanol as substrate [4]: Mdh activity was stimulated equally well (about 8-fold) with NudF as with Act

B4: Mdh2-MGA3 (methanol dehydrogenase Mdh2 of Bacillus methanolicus MGA3) (protein)
chain: MTNTQSAFFMPSVNLFGAGSVNEVGTRLADLGVKKALLVTDAGLHGLGLSEKISSIIRAAGVEVSIFPKAEPNPTDKNVAEGLEAYNAENCDSIVTLGGGSSHDAGKAIALVAANGGKIHDYEGVDVSKEPMVPLIAINTTAGTGSELTKFTIITDTERKVKMAIVDKHVTPTLSINDPELMVGMPPSLTAATGLDALTHAIEAYVSTGATPITDALAIQAIKIISKYLPRAVANGKDIEAREQMAFAQSLAGMAFNNAGLGYVHAIAHQLGGFYNFPHGVCNAVLLPYVCRFNLISKVERYAEIAAFLGENVDGLSTYDAAEKAIKAIERMAKDLNIPKGFKELGAKEEDIETLAKNAMKDACALTNPRKPKLEEVIQIIKNAM
Km for methanol in the presence of Act (20 ug MDH + 20 ug Act) [2]: 200 mM | Vmax with methanol in the presence of Act (20 ug MDH + 20 ug Act) [2]: 0.15 U/mg | Vmax with methanol, with Act against single enzyme assay [2]: The Vmax values were increased 4-6-fold compared to in the single enzyme assays | change of Km,MeOH by Act [2]: remained essentially the same as when tested without Act | methanol dehydrogenase activity in lysates of recombinant B. subtilis 168, methanol or ethanol as substrate, 50 C [2]: In all cases, methanol dehydrogenase activities were significantly stimulated by Act

B5: Act-MGA3 (MDH activator protein Act of Bacillus methanolicus MGA3) (protein, UniProt Q8KP10 2-185, looked up)
Methanol dehydrogenase activator: GKLFEEKTIKTEQIFSGRVVKLQVDDVELPNGQTSKREIVRHPGAVAVIAITNENKIVMVEQYRKPLEKSIVEIPAGKLEKGEDPRVTALRELEEETGYECEQMEWLISFATSPGFADEIIHLYVAKGLSKKENAAGLDEDEFVDLIELTLDEALQYIKEKRIYDSKTVIAVQYLQLQEALKHK
Mdh activity in vitro, crude extract of E. coli co-expressing Act, 37 C, +Act [5]: 464 mU/mg | Mdh activity in vitro, crude extract of E. coli co-expressing Act, 45 C, +Act [5]: 1260 mU/mg | Mdh activity in vivo, E. coli cells co-expressing Act, 37 C, +Act [5]: 1 mU/mg | Mdh activity in vivo, E. coli cells co-expressing Act, 42 C, +Act [5]: 1 mU/mg | Mdh activity in vitro, crude extract of E. coli co-expressing Act, 37 C, +Act [6]: 672 mU/mg | Mdh activity in vitro, crude extract of E. coli co-expressing Act, 45 C, +Act [6]: 1910 mU/mg | Mdh activity in vivo, E. coli cells co-expressing Act, 37 C, +Act [6]: 9 mU/mg | Mdh activity in vivo, E. coli cells co-expressing Act, 42 C, +Act [6]: 11.3 mU/mg | Mdh activity in vitro, crude extract of E. coli co-expressing Act, 37 C, +Act [7]: 327 mU/mg | Mdh activity in vitro, crude extract of E. coli co-expressing Act, 45 C, +Act [7]: 867 mU/mg | Mdh activity in vivo, E. coli cells co-expressing Act, 37 C, +Act [7]: 11 mU/mg | Mdh activity in vivo, E. coli cells co-expressing Act, 42 C, +Act [7]: 24 mU/mg | fold increase of catalytic activity, ethanol as substrate (the MGA3 MDHs): 6 to 8 fold | fold induction of MDH activity, methanol as substrate, MDH:Act 1:1 (the MGA3 MDHs): 5 to 7 fold

B6: Mdh-MGA3 (methanol dehydrogenase Mdh of Bacillus methanolicus MGA3, encoded on plasmid pBM19) (protein)
chain: MTTNFFIPPASVIGRGAVKEVGTRLKQIGAKKALIVTDAFLHSTGLSEEVAKNIREAGVDVAIFPKAQPDPADTQVHEGVDVFKQENCDSLVSIGGGSSHDTAKAIGLVAANGGRINDYQGVNSVEKPVVPVVAITTTAGTGSETTSLAVITDSARKVKMPVIDEKITPTVAIVDPELMVKKPAGLTIATGMDALSHAIEAYVAKGATPVTDAFAIQAMKLINEYLPKAVANGEDIEAREKMAYAQYMAGVAFNNGGLGLVHSISHQVGGVYKLQHGICNSVNMPHVCAFNLIAKTERFAHIAELLGENVAGLSTAAAAERAIVALERINKSFGIPSGYAEMGVKEEDIELLAKNAYEDVCTQSNPRVPTVQDIAQIIKNAM
Km for methanol in the presence of Act (20 ug MDH + 20 ug Act) [2]: 12 mM | MDH catalytic activity with methanol as substrate, at relative concentrations of the proteins of 1:2-20:1 [2]: Full activation was reached at a relative concentration of between 1:1 and 5:1 and no inhibition due to relative high activator concentrations was observed | Vmax with methanol in the presence of Act (20 ug MDH + 20 ug Act) [2]: 0.5 U/mg | Vmax with methanol, with Act against single enzyme assay [2]: The Vmax values were increased 4-6-fold compared to in the single enzyme assays | fold reduction of Km,MeOH by Act [2]: dramatically reduced (17-fold) to 12 mM for Mdh-MGA3 when Act was added to the reaction | fold stimulation of Mdh activity, ethanol as substrate [2]: Mdh activity was stimulated equally well (about 8-fold) with NudF as with Act | methanol dehydrogenase activity in lysates of recombinant B. subtilis 168, methanol or ethanol as substrate, 50 C [2]: In all cases, methanol dehydrogenase activities were significantly stimulated by Act

Reference: patent publication US20150267177A1
